B1: INTS3 (parent)
chain: EEITEESLEESVGKPLYLIFRNLC
B2: HSP90AB1 (parent)
chain: YHTSQSGDEMTSLSEYVSRMKETQ

Variants of: B1
Assay: protein stability index of a GFP-peptide fusion (GPS, HEK-293T) (PSI 1-6); higher = more stable
Conditions: c terminus: a fixed tail appended
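Also: lentivirally expressed fusions sorted by FACS into six bins by GFP to DsRed ratio, PSI derived from sequencing read proportions per bin multiplied by bin number.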

Protein stability index of substitutions, site by site:
L23: Y 2.68 | E 3.98 | V 3.39 | A 3.74 | F 3.14 | Q 4.17 | W 2.85 | R 3.47 | P 3.82 | N 3.47 | G 3.62 | S 3.67 | I 2.63 | T 3.4 | D 3.75 | K 4.52 | H 3.19 | C 3.54 | M 2.74
N22: F 2.94 | A 2.26 | I 2.05 | E 2.8 | T 2.15 | G 2.19 | P 2.54 | Q 2.42 | S 2.79 | L 3.01 | Y 2.06 | W 1.68 | R 2.96 | C 2.83 | D 3.4 | M 2.33 | V 1.55 | H 2.64 | K 2.56
R21: Y 2.03 | Q 2.77 | T 2.61 | K 2.61 | I 1.63 | G 3.1 | E 2.64 | M 2.1 | P 3.53 | S 2.95 | D 3.46 | F 2.03 | L 1.9 | A 2.77 | N 2.96 | C 2.62 | H 3.08 | V 2.09 | W 2.1
C24: D 3.48 | H 2.88 | P 2.62 | T 2.66 | R 3.02 | E 3.54 | F 2.99 | I 2.32 | A 2.87 | S 2.55 | M 2.7 | Q 2.19 | N 3.33 | Y 2.32 | V 1.68 | G 2.54 | L 2.16 | K 3.11 | W 2.08
F20: G 4.07 | K 4.46 | V 2.55 | I 2.88 | L 2.37 | T 3.6 | P 4.07 | M 3.1 | A 2.82 | Q 3.97 | W 2.35 | R 4.23 | N 4.33 | Y 2.71 | C 3.32 | D 4.48 | E 3.53 | S 3.77 | H 3.46
I19: V 3.16 | T 3.41 | Q 4 | S 3.33 | Y 2.75 | R 3.7 | W 2.91

Variants of: B2
Assay: as above
Conditions: c terminus: a fixed tail appended

Protein stability index of substitutions, site by site:
M10: N 4.17 | F 3.06 | P 4.17 | H 3.46 | W 2.12 | E 4.54 | S 3.87 | I 4.08 | T 3.73 | R 3.9 | V 3.74 | Y 3.2 | K 4.04 | G 4.1 | L 3.32 | C 4.05 | Q 4.05 | A 4.01 | D 4.68
Q5: F 2.35 | C 3.17 | P 3.34 | G 3.84 | L 2.83 | Y 3.21 | S 3.55 | H 3.67 | W 1.98 | A 3.66 | M 3.67 | E 3.79 | R 3 | T 3.91 | I 2.64 | N 3.39 | D 4.45
D8: I 2.32 | P 3 | C 2.58 | W 2.17 | K 3.24 | Q 3.69 | L 3.31 | G 2.89 | A 3.53 | V 3.47 | T 3.24 | F 3.44 | E 4.24 | Y 2.26 | N 3.33 | S 3.77 | H 2.92
Y1: S 4.67 | D 4.48 | C 4.49 | G 4.26 | Q 4.61 | N 4.77 | K 4.29 | V 4.81 | E 4.97 | P 5.09 | T 5.02 | M 4.06 | W 4.2 | I 4.49 | L 4.84 | R 4.14 | A 4.7 | H 4.97 | F 3.68
S4: G 3.02 | Q 3.34 | H 3.38 | C 3.56 | D 3.49 | K 2.07 | Y 2.21 | I 2.51 | N 3.39 | M 3.61 | A 3.86 | L 2.48 | E 4.38 | T 3.99 | V 3.12 | W 1.96
S14: A 3.66 | C 3.44
H2: M 3.61 | E 4.56 | N 3.92 | L 4.15 | K 4.66 | F 4.26 | G 4.62 | D 4.45 | A 2.87 | Q 3.94 | V 2.83 | S 4.42 | W 3.52 | C 3.57 | I 3.46 | T 4.67 | Y 3.15 | P 5
G7: N 2.83 | S 3.67 | I 3.29 | Y 2.98 | V 3.26 | P 3.74 | D 4.08 | Q 3.78 | E 4.12 | M 3.47 | L 3.61 | R 3.44 | H 3.65 | F 3.17 | T 4.32 | A 3.73 | C 3.33 | W 2.99 | K 3.33
E9: Q 3.43 | S 2.91 | M 2.52 | Y 2.58 | H 3.11 | G 3.67 | I 2.77 | A 2.78 | L 2.09 | T 3.66 | C 2.48 | D 3.79 | W 1.87 | F 2.33 | R 1.99 | P 3.51 | V 3.12
T11: V 3.68 | Y 2.74 | M 3.07 | F 2.78 | E 3.9 | I 3.12 | W 2.01 | S 3.62 | L 3.35 | R 3.53 | K 4.58 | N 3.56 | C 3.62 | G 3.77 | A 3.51 | P 3.57 | H 3.64 | D 3.81
L13: I 3.5 | D 4.11 | T 4.25 | P 3.74 | H 3.88 | Y 3.38 | E 4.62 | N 4.34 | Q 4.59 | K 3.82 | S 3.68 | F 2.18 | C 3.52 | A 4.37 | M 4.04 | R 4.21 | V 3.32 | G 4.27
S12: T 3.88 | G 3.75 | F 2.98 | D 4.14 | N 3.64 | C 2.87 | E 4.28 | L 2.49 | W 2.6 | H 3.52 | K 3.12 | P 3.52 | Q 3.36 | I 2.92 | V 2.99 | Y 2.81 | A 3.21
S6: W 1.88 | T 3.46 | K 3.03 | D 4.53 | H 2.91 | F 2.54 | A 3.54 | V 3.21 | Y 2.06 | R 3.56 | E 4.15 | I 2.98 | Q 2.83 | C 3.22 | P 3.02 | G 3.75 | N 4.08 | L 3.26
T3: R 3.8 | C 3.22 | K 3.48 | P 2.81 | S 3.58 | N 3.42 | I 3.18 | Q 3.66 | G 3.41 | W 1.53 | E 3.07 | M 3.12 | V 2.96 | A 3.26 | F 2.96 | D 4.53 | H 3.67

Source: the supplement of paper PMC10567573
